The target of experiment [1] is T1, Full-length SARS-CoV-1 Spike on HEK 293T cells (SARS-CoV-1 (SARS-CoV), isolate not …, UniProt P59594).
Experiment [2] concerns the target T2, Recombinant S1 Wuhan (residues 1–674) (SARS-CoV-2, UniProt P0DTC2).
The target in experiment [3] is Recombinant stabilized SARS-CoV-2 spike for ELISA (Wuhan) (SARS-CoV-2, Wuhan, UniProt P0DTC2, stabilised).
The target of experiment [4] is T3, Full-length SARS-CoV-2 Spike on HEK 293T cells (SARS-CoV-2, UniProt P0DTC2).
The target of experiment [5] is T2, Recombinant S1 Wuhan (residues 1–674). The experiment is described as follows: ELISA. Conditions: both partners purified.
In experiment [6] the target is T1, Full-length SARS-CoV-1 Spike on HEK …. Nature of the experiment: flow cytometry on cells. The settings on record: one partner purified.
In experiment [7] the target is T4, Full-length MERS Spike on HEK 293T cells (MERS-CoV, isolate  (entry: …, UniProt K9N5Q8)).
T4 construct: source: HEK293T, transfected (pcDNA3.1+), on the cell surface
Nature of the experiment: flow cytometry on cells. The settings on record: one partner purified.

For experiment [8], the target named is T5, Full-length NL63 Spike on HEK 293T cells (human coronavirus NL63, isolate not …, UniProt Q6Q1S2).
T5 construct: source: HEK293T, transfected (pcDNA3.1+), on the cell surface
Nature of the experiment: flow cytometry on cells. The settings on record: one partner purified.

The target of experiment [9] is T6, Full-length OC43 Spike on HEK 293T cells (human coronavirus OC43, isolate not …, UniProt P36334).
T6 construct: source: HEK293T, transfected (pcDNA3.1+), on the cell surface
Nature of the experiment: flow cytometry on cells. The settings on record: one partner purified.

Experiment [10] concerns the target T7, Full-length 229E Spike on HEK 293T cells (human coronavirus 229E, isolate not …, UniProt P15423).
T7 construct: source: HEK293T, transfected (pcDNA3.1+), on the cell surface
The experiment is described as follows: flow cytometry on cells. Conditions: one partner purified.

For experiment [11], the target named is T3, Full-length SARS-CoV-2 Spike on HEK …. The experiment is described as follows: flow cytometry on cells. Conditions: one partner purified.

The values below come from publication PMC9365860 (Cell Reports, 2022).

Like-named read-outs stand apart in the source and are kept apart here.

B1: VA14_47 (antibody, V domains shown)
VH: EVQLVESGGGVVQPGRSLRLSCGGSGFTFSSHAMHWVRQAPGKGLEWVAVISYDGSYQYYADSVKGRFTISRDNSKNALYLQMNSLRVEDTAIYYCARDTPDLETYYFDCWGQGTLVTVSS
VL: EIVMTQSPGTLSLSPGERATLSCRASQSVSSSYLAWYQQKPGQAPRLLIYSACSRATGIPDRFSGSGSGTDFTLTISRLEPEDFAVYYCQQYGDSPRGSFGQGTKVDIK
As to B1, the binding result in experiment [1], in [2], in experiment [3] and in experiment [4] was “binds” each time.

B2: P008_60 IgG (antibody, V domains shown)
VH: EVQLVESGGGVVQPGRSLRLTCAASGFIFSSYGMHWVRQAPGKGLEWVAVISYDGSYKYYADSVKGRFTISRDNSKNTLYLQMNSLRAEDTAVYYCTKADYYDFWSGYQKTYYYYMDVWGKGTTVTISS
VL: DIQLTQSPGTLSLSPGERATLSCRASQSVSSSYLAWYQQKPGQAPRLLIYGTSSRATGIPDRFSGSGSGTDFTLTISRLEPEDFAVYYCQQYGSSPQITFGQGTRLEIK
notes: also called mAb P008_60; P008_060; source: HEK-293F, co-transfected heavy and light plasmids, purified (protein G)
In the case of B2, the binding result in experiment [5] is “binds”; in [6], “binds”; in [7], “no binding (tested: 25 μg/mL)”; in [8] it was “no binding (tested: 25 μg/mL)”; in experiment [9] it was “no binding (tested: 25 μg/mL)”; in experiment [10], “no binding (tested: 25 μg/mL)”. In addition, the binding result in experiment [11] was “binds”.
